Bridge positions count the residues as written; N and C are the ends. Square brackets hold non-standard residues; d marks the D form. Ends that are not written are not given here. Pro(trans-4-F) = O=C(O)[C@@H]1C[C@@H](F)CN1; Oic = O=C(O)[C@@H]1C[C@@H]2CCCC[C@@H]2N1; Hyp = O=C(O)[C@@H]1C[C@@H](O)CN1; NMeI = CC[C@H](C)[C@H](NC)C(=O)O; tBuAla = CC(C)(C)C[C@H](N)C(=O)O; 3Pal = N[C@@H](Cc1cccnc1)C(=O)O; PEG5 = NCCOCCOCCOCCOCCOCCC(=O)O; 2Thi = N[C@@H](Cc1cccs1)C(=O)O; Pen = CC(C)(S)[C@H](N)C(=O)O; αMeP = C[C@@]1(C(=O)O)CCCN1; NMeC = CN[C@@H](CS)C(=O)O; Orn = NCCC[C@H](N)C(=O)O; Abu = CC[C@H](N)C(=O)O; Sar = CNCC(=O)O
T1: recombinant human MASP1 active protease (amino acids 297-699, C-terminal His Tag) (human, UniProt P48740 297-699)
T1 sequence: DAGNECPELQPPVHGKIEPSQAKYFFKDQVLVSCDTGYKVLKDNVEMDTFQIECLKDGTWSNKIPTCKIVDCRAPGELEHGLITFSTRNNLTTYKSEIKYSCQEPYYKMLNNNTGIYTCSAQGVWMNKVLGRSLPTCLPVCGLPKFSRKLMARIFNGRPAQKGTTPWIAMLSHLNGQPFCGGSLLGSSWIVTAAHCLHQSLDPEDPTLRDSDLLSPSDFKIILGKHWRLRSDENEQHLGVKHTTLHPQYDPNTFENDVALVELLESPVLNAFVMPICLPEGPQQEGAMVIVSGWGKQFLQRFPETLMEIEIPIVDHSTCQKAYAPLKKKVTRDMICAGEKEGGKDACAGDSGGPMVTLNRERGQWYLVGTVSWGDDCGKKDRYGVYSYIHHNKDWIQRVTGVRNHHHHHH

T2: recombinant rat MASP1 active protease (amino acids 302-704, C-terminal His Tag) (rat, UniProt Q8CHN8 302-704)
T2 sequence: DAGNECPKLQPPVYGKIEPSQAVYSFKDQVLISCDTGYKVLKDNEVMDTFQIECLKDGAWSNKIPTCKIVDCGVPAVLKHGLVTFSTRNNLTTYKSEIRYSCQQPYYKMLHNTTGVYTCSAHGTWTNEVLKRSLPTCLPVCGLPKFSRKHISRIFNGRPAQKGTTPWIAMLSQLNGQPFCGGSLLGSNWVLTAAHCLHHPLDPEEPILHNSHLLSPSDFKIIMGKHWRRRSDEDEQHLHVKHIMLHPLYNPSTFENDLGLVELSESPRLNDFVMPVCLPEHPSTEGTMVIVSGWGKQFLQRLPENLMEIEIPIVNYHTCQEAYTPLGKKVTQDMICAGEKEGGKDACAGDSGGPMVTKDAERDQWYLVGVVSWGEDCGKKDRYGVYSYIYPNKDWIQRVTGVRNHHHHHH

B1: (Orn)-IC+SRS-((tBu)A)-PPI-(Pen)+IPD-NH2 (peptide)
peptide: [Orn]ICSRS[tBuAla]PPI[Pen]IPD-NH2
modifications: disulfide 3-11; N-terminus assumed
SMILES: CC[C@H](C)[C@H](NC(=O)[C@@H](N)CCCN)C(=O)N[C@H]1CSSC(C)(C)[C@@H](C(=O)N[C@H](C(=O)N2CCC[C@H]2C(=O)N[C@@H](CC(=O)O)C(N)=O)[C@@H](C)CC)NC(=O)[C@H]([C@@H](C)CC)NC(=O)[C@@H]2CCCN2C(=O)[C@@H]2CCCN2C(=O)[C@H](CC(C)(C)C)NC(=O)[C@H](CO)NC(=O)[C@H](CCCNC(=N)N)NC(=O)[C@H](CO)NC1=O
B2: ((N-Me)G)-IC+SRSLP-(Oic)-I-(Pen)+IPD-OH (peptide)
peptide: [Sar]ICSRSLP[Oic]I[Pen]IPD-OH
modifications: disulfide 3-11; N-terminus assumed
SMILES: CC[C@H](C)[C@H](NC(=O)CNC)C(=O)N[C@H]1CSSC(C)(C)[C@@H](C(=O)N[C@H](C(=O)N2CCC[C@H]2C(=O)N[C@@H](CC(=O)O)C(=O)O)[C@@H](C)CC)NC(=O)[C@H]([C@@H](C)CC)NC(=O)[C@@H]2C[C@@H]3CCCC[C@@H]3N2C(=O)[C@@H]2CCCN2C(=O)[C@H](CC(C)C)NC(=O)[C@H](CO)NC(=O)[C@H](CCCNC(=N)N)NC(=O)[C@H](CO)NC1=O
B3: AIC+SRSLP-(Oic)-I-(Pen)+IPD-NH2 (peptide)
peptide: AICSRSLP[Oic]I[Pen]IPD-NH2
modifications: disulfide 3-11; also: TFA salt
B4: (3-Pal)-IC+SRS-((tBu)A)-PPI-(Pen)+IPD-NH2 (peptide)
peptide: [3Pal]ICSRS[tBuAla]PPI[Pen]IPD-NH2
modifications: disulfide 3-11; N-terminus assumed
SMILES: CC[C@H](C)[C@H](NC(=O)[C@@H](N)Cc1cccnc1)C(=O)N[C@H]1CSSC(C)(C)[C@@H](C(=O)N[C@H](C(=O)N2CCC[C@H]2C(=O)N[C@@H](CC(=O)O)C(N)=O)[C@@H](C)CC)NC(=O)[C@H]([C@@H](C)CC)NC(=O)[C@@H]2CCCN2C(=O)[C@@H]2CCCN2C(=O)[C@H](CC(C)(C)C)NC(=O)[C@H](CO)NC(=O)[C@H](CCCNC(=N)N)NC(=O)[C@H](CO)NC1=O
B5: ((N-Me)G)-IC+SRSLP-(Oic)-I-(Pen)+IP-(PEG4(19 atoms))-NH2 (peptide)
peptide: [Sar]ICSRSLP[Oic]I[Pen]IP[PEG5]-NH2
modifications: disulfide 3-11; N-terminus assumed
SMILES: CC[C@H](C)[C@H](NC(=O)CNC)C(=O)N[C@H]1CSSC(C)(C)[C@@H](C(=O)N[C@H](C(=O)N2CCC[C@H]2C(=O)NCCOCCOCCOCCOCCOCCC(N)=O)[C@@H](C)CC)NC(=O)[C@H]([C@@H](C)CC)NC(=O)[C@@H]2C[C@@H]3CCCC[C@@H]3N2C(=O)[C@@H]2CCCN2C(=O)[C@H](CC(C)C)NC(=O)[C@H](CO)NC(=O)[C@H](CCCNC(=N)N)NC(=O)[C@H](CO)NC1=O
B6: aIC+SRS-((tBu)A)-PPI-(Pen)+IPD-NH2 (peptide)
peptide: [dA]ICSRS[tBuAla]PPI[Pen]IPD-NH2
modifications: disulfide 3-11; N-terminus assumed
SMILES: CC[C@H](C)[C@H](NC(=O)[C@@H](C)N)C(=O)N[C@H]1CSSC(C)(C)[C@@H](C(=O)N[C@H](C(=O)N2CCC[C@H]2C(=O)N[C@@H](CC(=O)O)C(N)=O)[C@@H](C)CC)NC(=O)[C@H]([C@@H](C)CC)NC(=O)[C@@H]2CCCN2C(=O)[C@@H]2CCCN2C(=O)[C@H](CC(C)(C)C)NC(=O)[C@H](CO)NC(=O)[C@H](CCCNC(=N)N)NC(=O)[C@H](CO)NC1=O
B7: Ac-G-((N-Me)I)-C+SRSLPPIC+IPD-OH (peptide)
peptide: Ac-G[NMeI]CSRSLPPICIPD-OH
modifications: disulfide 3-11
SMILES: CC[C@H](C)[C@@H]1NC(=O)[C@@H]2CCCN2C(=O)[C@@H]2CCCN2C(=O)[C@H](CC(C)C)NC(=O)[C@H](CO)NC(=O)[C@H](CCCNC(=N)N)NC(=O)[C@H](CO)NC(=O)[C@@H](NC(=O)[C@H]([C@@H](C)CC)N(C)C(=O)CNC(C)=O)CSSC[C@@H](C(=O)N[C@H](C(=O)N2CCC[C@H]2C(=O)N[C@@H](CC(=O)O)C(=O)O)[C@@H](C)CC)NC1=O
B8: (beta-2-thienylalanine)-IC+SRS-((tBu)A)-PPI-(Pen)+IPD-NH2 (peptide)
peptide: [2Thi]ICSRS[tBuAla]PPI[Pen]IPD-NH2
modifications: disulfide 3-11; N-terminus assumed
SMILES: CC[C@H](C)[C@H](NC(=O)[C@@H](N)Cc1cccs1)C(=O)N[C@H]1CSSC(C)(C)[C@@H](C(=O)N[C@H](C(=O)N2CCC[C@H]2C(=O)N[C@@H](CC(=O)O)C(N)=O)[C@@H](C)CC)NC(=O)[C@H]([C@@H](C)CC)NC(=O)[C@@H]2CCCN2C(=O)[C@@H]2CCCN2C(=O)[C@H](CC(C)(C)C)NC(=O)[C@H](CO)NC(=O)[C@H](CCCNC(=N)N)NC(=O)[C@H](CO)NC1=O
B9: AIC+SRSLP-(Oic)-I-(Pen)+IPD-OH (salt free form) (peptide)
peptide: AICSRSLP[Oic]I[Pen]IPD-OH
modifications: disulfide 3-11
B10: Example 313: ((N-Me)G)-IC+SRSLPPIC+I-(Abu)-D-OH (peptide)
peptide: [Sar]ICSRSLPPICI[Abu]D-OH
modifications: disulfide 3-11; N-terminus assumed
SMILES: CC[C@H](NC(=O)[C@@H](NC(=O)[C@@H]1CSSC[C@H](NC(=O)[C@@H](NC(=O)CNC)[C@@H](C)CC)C(=O)N[C@@H](CO)C(=O)N[C@@H](CCCNC(=N)N)C(=O)N[C@@H](CO)C(=O)N[C@@H](CC(C)C)C(=O)N2CCC[C@H]2C(=O)N2CCC[C@H]2C(=O)N[C@@H]([C@@H](C)CC)C(=O)N1)[C@@H](C)CC)C(=O)N[C@@H](CC(=O)O)C(=O)O
B11: Example 479: (Orn)-IC+SRS-((tBu)A)-PPI-((N-Me)C)+IPD-OH (peptide)
peptide: [Orn]ICSRS[tBuAla]PPI[NMeC]IPD-OH
modifications: disulfide 3-11; N-terminus assumed
SMILES: CC[C@H](C)[C@H](NC(=O)[C@@H](N)CCCN)C(=O)N[C@H]1CSSC[C@@H](C(=O)N[C@H](C(=O)N2CCC[C@H]2C(=O)N[C@@H](CC(=O)O)C(=O)O)[C@@H](C)CC)N(C)C(=O)[C@H]([C@@H](C)CC)NC(=O)[C@@H]2CCCN2C(=O)[C@@H]2CCCN2C(=O)[C@H](CC(C)(C)C)NC(=O)[C@H](CO)NC(=O)[C@H](CCCNC(=N)N)NC(=O)[C@H](CO)NC1=O
B12: Example 367: ((N-Me)G)-IC+SRSLPPIC+I-(Oic)-D-OH (peptide)
peptide: [Sar]ICSRSLPPICI[Oic]D-OH
modifications: disulfide 3-11; N-terminus assumed
SMILES: CC[C@H](C)[C@H](NC(=O)CNC)C(=O)N[C@H]1CSSC[C@@H](C(=O)N[C@H](C(=O)N2[C@H](C(=O)N[C@@H](CC(=O)O)C(=O)O)C[C@@H]3CCCC[C@@H]32)[C@@H](C)CC)NC(=O)[C@H]([C@@H](C)CC)NC(=O)[C@@H]2CCCN2C(=O)[C@@H]2CCCN2C(=O)[C@H](CC(C)C)NC(=O)[C@H](CO)NC(=O)[C@H](CCCNC(=N)N)NC(=O)[C@H](CO)NC1=O
B13: Example 287: ((N-Me)G)-IC+SRSLPPIC+I-((trans-4-Fluoro)P)-D-OH (peptide)
peptide: [Sar]ICSRSLPPICI[Pro(trans-4-F)]D-OH
modifications: disulfide 3-11; N-terminus assumed
SMILES: CC[C@H](C)[C@H](NC(=O)CNC)C(=O)N[C@H]1CSSC[C@@H](C(=O)N[C@H](C(=O)N2C[C@H](F)C[C@H]2C(=O)N[C@@H](CC(=O)O)C(=O)O)[C@@H](C)CC)NC(=O)[C@H]([C@@H](C)CC)NC(=O)[C@@H]2CCCN2C(=O)[C@@H]2CCCN2C(=O)[C@H](CC(C)C)NC(=O)[C@H](CO)NC(=O)[C@H](CCCNC(=N)N)NC(=O)[C@H](CO)NC1=O
B14: Example 348: GIC+SRSLPPIC+I-(Hyp)-D-OH (peptide)
peptide: GICSRSLPPICI[Hyp]D-OH
modifications: disulfide 3-11; N-terminus assumed
SMILES: CC[C@H](C)[C@H](NC(=O)CN)C(=O)N[C@H]1CSSC[C@@H](C(=O)N[C@H](C(=O)N2C[C@H](O)C[C@H]2C(=O)N[C@@H](CC(=O)O)C(=O)O)[C@@H](C)CC)NC(=O)[C@H]([C@@H](C)CC)NC(=O)[C@@H]2CCCN2C(=O)[C@@H]2CCCN2C(=O)[C@H](CC(C)C)NC(=O)[C@H](CO)NC(=O)[C@H](CCCNC(=N)N)NC(=O)[C@H](CO)NC1=O
B15: Example 289: ((N-Me)G)-IC+SRSLPP-IC+I-((2-Me)P)-D-OH (peptide)
peptide: [Sar]ICSRSLPPICI[αMeP]D-OH
modifications: disulfide 3-11; N-terminus assumed
SMILES: CC[C@H](C)[C@H](NC(=O)CNC)C(=O)N[C@H]1CSSC[C@@H](C(=O)N[C@H](C(=O)N2CCC[C@@]2(C)C(=O)N[C@@H](CC(=O)O)C(=O)O)[C@@H](C)CC)NC(=O)[C@H]([C@@H](C)CC)NC(=O)[C@@H]2CCCN2C(=O)[C@@H]2CCCN2C(=O)[C@H](CC(C)C)NC(=O)[C@H](CO)NC(=O)[C@H](CCCNC(=N)N)NC(=O)[C@H](CO)NC1=O

target: T1, recombinant human MASP1 active protease …; assay: cell-based or functional assay

human MASP1 IC50 [nM]	Binder
2	B1
2.5	B2
2.23	B3
2.6	B4
2.6	B5
2	B6
2.09	B7
2.6	B8
0.96	B9

target: T2, recombinant rat MASP1 active protease …; assay: cell-based or functional assay

rat MASP1 IC50 [nM]	Binder
220	B10
84	B11
120	B12
250	B13
350	B14
180	B15

Reference: patent publication US20210246166A1 (Bayer, published 2021)
